Consider 17 molecules from patent US20220177587A1, “METHODS AND USES OF VARIANT CD80 FUSION PROTEINS AND RELATED CONSTRUCTS” (Alpine Immune Sciences, Inc., priority 2018, published 2022).

The labels stand for the following.
B1: variant CD80 IgV-Fc (inert) H18Y/A26P/E35D/M47V/V68M/A71G (Fc fusion)
chain: VIHVTKEVKEVATLSCGYNVSVEELPQTRIYWQKDKKMVLTMMSGDVNIWPEYKNRTIFDITNNLSIMILGLRPSDEGTYECVVLKYEKDAFKREHLAEVTLSVKAD
B2: CD80 ECD (SEQ ID NO:2)-Fc (inert) with GSG4S linker (Fc fusion)
chain: VIHVTKEVKEVATLSCGHNVSVEELAQTRIYWQKEKKMVLTMMSGDMNIWPEYKNRTIFDITNNLSIVILALRPSDEGTYECVVLKYEKDAFKREHLAEVTLSVKADFPTPSISDFEIPTSNIRRIICSTSGGFPEPHLSWLENGEELNAINTTVSQDPETELYAVSSKLDFNMTTNHSFMCLIKYGHLRVNQTFNWNTTKQEHFPDNGSGGGGS
B3: variant CD80 IgV-Fc E35D/M47V/N48T/L85Q (Fc fusion)
chain: B1 chain with Y18H, P26A, N48T, M68V, G71A, L85Q
B4: variant CD80 IgV-Fc E35D/T41S/M43I/M47V/A71G (Fc fusion)
chain: B1 chain with Y18H, P26A, T41S, M43I, M68V
B5: variant CD80 IgV-Fc E35D/M47L/A71G/L85Q (Fc fusion)
chain: B1 chain with Y18H, P26A, V47L, M68V, L85Q
B6: variant CD80 IgV-Fc M47L/L85Q (Fc fusion)
chain: B1 chain with Y18H, P26A, D35E, V47L, M68V, G71A, L85Q
B7: variant CD80 IgV-Fc V22D/E35D/M47L/L85Q (Fc fusion)
chain: B1 chain with Y18H, V22D, P26A, V47L, M68V, G71A, L85Q
B8: variant CD80 IgV-Fc E35D/T41S/M43I/M47L/A71G (Fc fusion)
chain: B1 chain with Y18H, P26A, T41S, M43I, V47L, M68V
B9: variant CD80 IgV-Fc E35D/M47V/A71G (Fc fusion)
chain: B1 chain with Y18H, P26A, M68V
B10: variant CD80 IgV-Fc V22D/E35D/M47L/L70M/L97Q (Fc fusion)
chain: B1 chain with Y18H, V22D, P26A, V47L, M68V, L70M, G71A, L97Q
B11: variant CD80 IgV-Fc E35D/A71G (Fc fusion)
chain: B1 chain with Y18H, P26A, V47M, M68V
B12: variant CD80 IgV-Fc E35D/T41S/M43I/A71G/D90G (Fc fusion)
chain: B1 chain with Y18H, P26A, T41S, M43I, V47M, M68V, D90G
B13: variant CD80 IgV-Fc H18Y/E35D/N48K (Fc fusion)
chain: B1 chain with P26A, V47M, N48K, M68V, G71A
B14: variant CD80 IgV-Fc E35D/D46E/M47V/A71D/D90G (Fc fusion)
chain: B1 chain with Y18H, P26A, D46E, M68V, G71D, D90G
B15: variant CD80 IgV-Fc E35D/D46V/M47L/V68M/L85Q/E88D (Fc fusion)
chain: B1 chain with Y18H, P26A, D46V, V47L, G71A, L85Q, E88D
B16: variant CD80 IgV-Fc E35D/D46E/M47V/A71D (Fc fusion)
chain: B1 chain with Y18H, P26A, D46E, M68V, G71D
B17: variant CD80 IgV-Fc E35D/K37E/M47V/N48D/L85Q/D90N (Fc fusion)
chain: B1 chain with Y18H, P26A, K37E, N48D, M68V, G71A, L85Q, D90N

Substitutions are numbered along the chain they refer to. Names and notes keep the numbering of the source.

Sequence of human CTLA-4 (human) (P16410 36-223): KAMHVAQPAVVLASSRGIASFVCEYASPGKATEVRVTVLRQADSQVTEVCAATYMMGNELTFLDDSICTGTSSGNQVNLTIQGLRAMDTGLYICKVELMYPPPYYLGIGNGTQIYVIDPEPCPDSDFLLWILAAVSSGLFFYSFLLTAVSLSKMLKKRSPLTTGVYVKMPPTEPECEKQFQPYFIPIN

The first assay concerns the target human PD-L1 (human) (UniProt Q9NZQ7). The assay is described as follows: flow cytometry, CHO cells stably expressing PD-L1. (In general: In flow cytometry, cells or beads pass a laser one at a time.)
With B1, the MFI at 33.3 nM was 51500 MFI.

B2 yielded an MFI at 33.3 nM of 35 MFI.

Another assay deals with CD28 (human) (UniProt P10747). The assay is described as follows: flow cytometry, Jurkat cells (CD28).
B1 had an MFI at 33.3 nM of 6910 MFI.

Consider B2, for which the MFI at 33.3 nM came out at 37 MFI.

Another assay has as its target CD28 (human) (UniProt P10747). The assay can be described thus: flow cytometry, Jurkat/IL2 reporter cells (CD28).
Take B3: the MFI at 33.3 nM came out at 692 MFI.

B4 showed an MFI at 33.3 nM of 2840 MFI.

The molecule B5 registered an MFI at 33.3 nM of 1440 MFI.

B6 returned an MFI at 33.3 nM of 88.1 MFI.

In the case of B7, the MFI at 33.3 nM worked out at 542 MFI.

B8 had an MFI at 33.3 nM of 3100 MFI.

For the molecule B9, the MFI at 33.3 nM came to 6360 MFI.

In turn, B10 yielded an MFI at 33.3 nM of 527 MFI.

The next assay has as its target human CTLA-4 (human) (UniProt P16410). The assay can be described thus: flow cytometry, CHO cells expressing huCTLA4.
In the case of B11, the MFI at 33.3 nM amounted to 184000 MFI.

Regarding B12, the MFI at 33.3 nM came out at 208000 MFI.

B13: the MFI at 33.3 nM amounted to 261000 MFI.

The molecule B7 displayed an MFI at 33.3 nM of 256000 MFI.

B14 gave an MFI at 33.3 nM of 275000 MFI.

On to B8, for which the MFI at 33.3 nM stood at 209000 MFI.

In a further assay the target is human PD-L1 (human) (UniProt Q9NZQ7). The assay can be described thus: flow cytometry, CHO cells expressing huPD-L1.
Sequence of human PD-L1 (human) (Q9NZQ7 19-290): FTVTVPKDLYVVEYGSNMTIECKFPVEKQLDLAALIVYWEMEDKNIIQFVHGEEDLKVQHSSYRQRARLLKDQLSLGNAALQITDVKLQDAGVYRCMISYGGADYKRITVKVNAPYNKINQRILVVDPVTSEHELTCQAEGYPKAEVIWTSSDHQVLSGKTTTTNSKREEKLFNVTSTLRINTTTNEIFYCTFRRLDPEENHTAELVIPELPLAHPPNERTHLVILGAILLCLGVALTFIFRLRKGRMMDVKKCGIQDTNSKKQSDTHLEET
B15 gave an MFI at 33.3 nM of 137000 MFI.

Turning to B3, the MFI at 33.3 nM was determined as 35500 MFI.

Turning to B4, the MFI at 33.3 nM is 44400 MFI.

B11 gave an MFI at 33.3 nM of 34100 MFI.

In turn, B16 registered an MFI at 33.3 nM of 549 MFI.

Molecule B6 had an MFI at 33.3 nM of 5800 MFI.

B14: the MFI at 33.3 nM was 32400 MFI.

Regarding B17, the MFI at 33.3 nM was determined as 26500 MFI.

B9 gave an MFI at 33.3 nM of 36200 MFI.
